Results as given in PMC2628407.

Experiments:
[1] = system: FMRP (His-tagged recombinant); assay: filter binding competition; details: vs 32P-N19; EMSA or filter binding as in ref 4, with K+ or Na+; buffer, pH and temperature not in the material
[2] = system: FMRP (His-tagged recombinant); assay: EMSA competition; details: vs 32P-N19; EMSA or filter binding as in ref 4, with K+ or Na+; buffer, pH and temperature not in the material
FXR1P Isoe = assay: filter binding competition; details: self-competition, 32P-Sod1; EMSA or filter binding as in ref 4, with K+ or Na+; buffer, pH and temperature not in the material

Substance | IC50 [1] | binding signal (% competition at 5 nM) [2] | IC50 (FXR1P Isoe)
Sod1-5' region | 3 nM | – | –
Sod1 full-length mRNA | 3 nM | 65 | 20 nM
